Paper PMC10991105

Substrate: CCCCCCCCCCCCCCCC(=O)Oc1ccc([N+](=O)[O-])cc1
Experiment: p-NPP hydrolysis, Lineweaver-Burk
Type: biochemical, Thermomyces lanuginosus
Conditions: free enzyme; p-NPP 0.05-0.5 mg/mL
Text: p-NPP hydrolysis, Lineweaver-Burk on Thermomyces lanuginosus lipase (TLLs)

B1: Thermomyces lanuginosus lipase (TLLs) (Thermomyces lanuginosus) (protein)
chain: EVSQDLFNQFNLFAQYSAAAYCGKNNDAPAGTNITCTGNACPEVEKADATFLYSFEDSGVGDVTGFLALDNTNKLIVLSFRGSRSIENWIGNLNFDLKEINDICSGCRGHDGFTSSWRSVADTLRQKVEDAVREHPDYRVVFTGHSLGGALATVAGADLRGNGYDIDVFSYGAPRVGNRAFAEFLTVQTGGTLYRITHTNDIVPRLPPREFGYSHSSPEYWIKSGTLVPVTRNDIVKIEGIDATGGNNQPNIPDIPAHLWYFGLIGTCL
notes: commercial free lipase from Novozymes
**Q.** B1 was tested. Which Km did it give?
**A.** The Km was 1396 µM.

**Q.** And the kcat?
**A.** Its kcat is 22800 s⁻¹.
